Experimental data from article PMC5854672, “Solution structure of extracellular loop of human β4 subunit of BK channel and its biological implication on ChTX sensitivity” (Scientific Reports, 2018).

How the values were obtained:
[1] = biological target: mSlo1 channel (BKα subunit of mouse, alone) (mouse) (UniProt Q08460)
mSlo1/β4(N123A) channel [2] = biological target: T1, mSlo1/β4(N123A) channel (mouse | human, UniProt Q08460 1-1209; Q86W47 1-210, N123A); assay: cell-based or functional assay
mSlo1/β4(N123R) channel [3] = biological target: T2, mSlo1/β4(N123R) channel (mouse | human, UniProt Q08460 1-1209; Q86W47 1-210, N123R); assay: cell-based or functional assay
mSlo1/β4(N123E) channel [4] = biological target: T3, mSlo1/β4(N123E) channel (mouse | human, UniProt Q08460 1-1209; Q86W47 1-210, N123E); assay: cell-based or functional assay
T3 sequence (Q08460 whole entry, stated change not applied, one chain of several): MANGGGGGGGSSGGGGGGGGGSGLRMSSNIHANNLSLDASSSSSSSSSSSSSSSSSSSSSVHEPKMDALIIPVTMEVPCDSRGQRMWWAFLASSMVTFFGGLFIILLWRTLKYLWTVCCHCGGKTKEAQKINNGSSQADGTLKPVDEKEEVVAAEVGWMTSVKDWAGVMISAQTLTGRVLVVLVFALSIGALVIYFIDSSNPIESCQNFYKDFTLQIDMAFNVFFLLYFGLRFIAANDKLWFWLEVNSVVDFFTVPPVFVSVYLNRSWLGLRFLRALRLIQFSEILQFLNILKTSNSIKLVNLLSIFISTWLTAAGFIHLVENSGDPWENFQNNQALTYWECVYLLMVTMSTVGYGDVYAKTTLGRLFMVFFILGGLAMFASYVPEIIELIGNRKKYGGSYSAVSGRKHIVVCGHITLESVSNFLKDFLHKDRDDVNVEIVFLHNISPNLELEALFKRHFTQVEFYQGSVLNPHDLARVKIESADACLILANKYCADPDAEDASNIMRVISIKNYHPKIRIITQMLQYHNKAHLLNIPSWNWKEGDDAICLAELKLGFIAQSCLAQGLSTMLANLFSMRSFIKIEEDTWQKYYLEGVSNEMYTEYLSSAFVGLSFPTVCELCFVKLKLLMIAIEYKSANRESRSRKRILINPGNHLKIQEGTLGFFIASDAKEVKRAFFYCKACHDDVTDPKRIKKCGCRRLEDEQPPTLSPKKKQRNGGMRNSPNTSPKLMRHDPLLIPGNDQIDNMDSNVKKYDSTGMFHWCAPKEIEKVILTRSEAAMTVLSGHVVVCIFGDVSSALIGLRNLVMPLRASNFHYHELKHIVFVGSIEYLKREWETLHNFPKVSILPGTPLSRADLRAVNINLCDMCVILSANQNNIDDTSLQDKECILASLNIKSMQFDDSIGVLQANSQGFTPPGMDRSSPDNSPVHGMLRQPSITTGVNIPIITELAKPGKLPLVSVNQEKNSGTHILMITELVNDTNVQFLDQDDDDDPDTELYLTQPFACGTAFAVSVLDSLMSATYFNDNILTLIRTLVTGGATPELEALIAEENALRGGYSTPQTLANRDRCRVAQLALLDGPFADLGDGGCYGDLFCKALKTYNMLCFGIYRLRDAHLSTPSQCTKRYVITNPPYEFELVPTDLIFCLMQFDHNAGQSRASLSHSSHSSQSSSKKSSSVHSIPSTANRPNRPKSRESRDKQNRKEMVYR

mSlo1/β4 channel [5] = biological target: T4, mSlo1/β4 channel (mouse | human, UniProt Q08460 1-1209; Q86W47 1-210); assay: cell-based or functional assay
T4 sequence (Q08460 whole entry, one chain of several): as the sequence (Q08460 whole entry, stated change not applied, one chain of several) above

mSlo1/β4(N123D) channel [6] = biological target: T5, mSlo1/β4(N123D) channel (mouse | human, UniProt Q08460 1-1209; Q86W47 1-210, N123D); assay: cell-based or functional assay
T5 sequence (Q08460 whole entry, stated change not applied, one chain of several): as above

mSlo1/β4(N123K) channel [7] = biological target: T6, mSlo1/β4(N123K) channel (mouse | human, UniProt Q08460 1-1209; Q86W47 1-210, N123K); assay: cell-based or functional assay
mSlo1/β4(N123Y) channel = biological target: T7, mSlo1/β4(N123Y) channel (mouse | human, UniProt Q08460 1-1209; Q86W47 1-210, N123Y); assay: patch-clamp electrophysiology (time course of current block); outside-out patches of transfected HEK293 cells perfused with 1 μM ChTX; steps to +100 mV, intracellular 10 μM Ca2+; τon and τoff fitted to a first order bimolecular reaction scheme; KD = [ChTX]/((τoff/τon) − 1); details: one partner purified
T7 construct: mSlo1, BK channel α subunit (KCNMA1) of mouse, full-length cDNA, GenBank HQ221747.1; human BK channel β4 subunit (KCNMB4), full-length cDNA, GenBank AF207992.1; source: HEK293, transiently co-transfected (pcDNA3.1(+)), in excised membrane patches; copies: 4 + 4

mSlo1/β4(N123V) channel = biological target: T8, mSlo1/β4(N123V) channel (mouse | human, UniProt Q08460 1-1209; Q86W47 1-210, N123V); assay: as above; details: one partner purified
T8 construct: mSlo1, BK channel α subunit (KCNMA1) of mouse, full-length cDNA, GenBank HQ221747.1; human BK channel β4 subunit (KCNMB4), full-length cDNA, GenBank AF207992.1; source: HEK293, transiently co-transfected (pcDNA3.1(+)), in excised membrane patches; copies: 4 + 4

[8] = biological target: T9, mSlo1 channel (BKα subunit of mouse, alone) (mouse, UniProt Q08460 1-1209); assay: as above; details: one partner purified
T9 construct: mSlo1, BK channel α subunit (KCNMA1) of mouse, full-length cDNA, GenBank HQ221747.1; tetrameric Slo1; also called mSlo1 alone channel; source: HEK293, transiently transfected (pcDNA3.1(+)), in excised membrane patches
T9 sequence (Q08460 whole entry): as the sequence (Q08460 whole entry, stated change not applied, one chain of several) above

mSlo1/β4(N123F) channel = biological target: T10, mSlo1/β4(N123F) channel (mouse | human, UniProt Q08460 1-1209; Q86W47 1-210, N123F); assay: as above; details: one partner purified
T10 construct: mSlo1, BK channel α subunit (KCNMA1) of mouse, full-length cDNA, GenBank HQ221747.1; human BK channel β4 subunit (KCNMB4), full-length cDNA, GenBank AF207992.1; source: HEK293, transiently co-transfected (pcDNA3.1(+)), in excised membrane patches; copies: 4 + 4

mSlo1/β4(N123A) channel [9] = biological target: T1, mSlo1/β4(N123A) channel; assay: as above; details: one partner purified
mSlo1/β4(H101Y) channel = biological target: T11, mSlo1/β4(H101Y) channel (mouse | human, UniProt Q08460 1-1209; Q86W47 1-210, H101Y); assay: as above; details: one partner purified
T11 construct: mSlo1, BK channel α subunit (KCNMA1) of mouse, full-length cDNA, GenBank HQ221747.1; human BK channel β4 subunit (KCNMB4), full-length cDNA, GenBank AF207992.1; source: HEK293, transiently co-transfected (pcDNA3.1(+)), in excised membrane patches; copies: 4 + 4

mSlo1/β4(N123R) channel [10] = biological target: T2, mSlo1/β4(N123R) channel; assay: as above; details: one partner purified
mSlo1/β4(N123L) channel = biological target: T12, mSlo1/β4(N123L) channel (mouse | human, UniProt Q08460 1-1209; Q86W47 1-210, N123L); assay: as above; details: one partner purified
T12 construct: mSlo1, BK channel α subunit (KCNMA1) of mouse, full-length cDNA, GenBank HQ221747.1; human BK channel β4 subunit (KCNMB4), full-length cDNA, GenBank AF207992.1; source: HEK293, transiently co-transfected (pcDNA3.1(+)), in excised membrane patches; copies: 4 + 4

mSlo1/β4(N123E) channel [11] = biological target: T3, mSlo1/β4(N123E) channel; assay: as above; details: one partner purified
mSlo1/β4 channel [12] = biological target: T4, mSlo1/β4 channel; assay: as above; details: one partner purified
mSlo1/β4(N123D) channel [13] = biological target: T5, mSlo1/β4(N123D) channel; assay: as above; details: one partner purified
mSlo1/β4(N123K) channel [14] = biological target: T6, mSlo1/β4(N123K) channel; assay: as above; details: one partner purified
mSlo1/β4(N123I) channel = biological target: T13, mSlo1/β4(N123I) channel (mouse | human, UniProt Q08460 1-1209; Q86W47 1-210, N123I); assay: as above; details: one partner purified
T13 construct: mSlo1, BK channel α subunit (KCNMA1) of mouse, full-length cDNA, GenBank HQ221747.1; human BK channel β4 subunit (KCNMB4), full-length cDNA, GenBank AF207992.1; source: HEK293, transiently co-transfected (pcDNA3.1(+)), in excised membrane patches; copies: 4 + 4

Chain of mSlo1 channel (BKα subunit of mouse, alone) (mouse) (Q08460 whole entry): as the sequence (Q08460 whole entry, stated change not applied, one chain of several) above

B1: human β4 subunit of BK channel, full length (natural protein)
chain: MAKLRVAYEYTEAEDKSIRLGLFLIISGVVSLFIFGFCWLSPALQDLQATEANCTVLSVQQIGEVFECTFTCGADCRGTSQYPCVQVYVNNSESNSRALLHSDEHQLLTNPKCSYIPPCKRENQKNLESVMNWQQYWKDEIGSQPFTCYFNQHQRPDDVLLHRTHDEIVLLHCFLWPLVTFVVGVLIVVLTICAKSLAVKAEAMKKRKFS
- thermodynamic double-mutant cycle on V1/2 of G-V curves (inside-out patches, 10 μM Ca2+): mSlo1(E264A) against β4(N123A), ΔΔV [1]: -42.4 mV

B2: Charybdotoxin (peptide)
chain: QFTNVSCTTSKECWSVCQRLHNTSRGKCMNKKCRCYS
notes: charybdotoxin (ChTX), scorpion toxin; also called ChTX; source: bought: Sigma-Aldrich (Art. No. C7802)
- inhibition of channel currents by 1 μM ChTX (outside-out patches, HEK293) (mSlo1/β4(N123A) channel [2]): ~90%
- inhibition of channel currents by 1 μM ChTX (outside-out patches, HEK293) (mSlo1/β4(N123R) channel [3]): 36.4%
- inhibition of channel currents by 1 μM ChTX (outside-out patches, HEK293) (mSlo1/β4(N123E) channel [4]): 96%
- inhibition of channel currents by 1 μM ChTX (outside-out patches, HEK293) (mSlo1/β4 channel [5]): 22.2%
- inhibition of channel currents by 1 μM ChTX (outside-out patches, HEK293) (mSlo1/β4(N123D) channel [6]): 46.9%
- inhibition of channel currents by 1 μM ChTX (outside-out patches, HEK293) (mSlo1/β4(N123K) channel [7]): 89.1%
- Kd (mSlo1/β4(N123Y) channel): 291 nM
- τoff (mSlo1/β4(N123Y) channel): 26.2 s
- τon (block at 1 μM ChTX) (mSlo1/β4(N123Y) channel): 5.9 s
- Kd (mSlo1/β4(N123V) channel): 61.8 nM
- τoff (mSlo1/β4(N123V) channel): 53.3 s
- τon (block at 1 μM ChTX) (mSlo1/β4(N123V) channel): 3.1 s
- Kd [8]: 193 nM
- τoff [8]: 21.6 s
- τon (block at 1 μM ChTX) [8]: 3.5 s
- Kd (mSlo1/β4(N123F) channel): 47.1 nM
- τoff (mSlo1/β4(N123F) channel): 670 s
- τon (block at 1 μM ChTX) (mSlo1/β4(N123F) channel): 30.1 s
- Kd (mSlo1/β4(N123A) channel [9]): 96.8 nM
- τoff (mSlo1/β4(N123A) channel [9]): 816 s
- τon (block at 1 μM ChTX) (mSlo1/β4(N123A) channel [9]): 72 s
- Kd (mSlo1/β4(H101Y) channel): 325 nM
- τoff (mSlo1/β4(H101Y) channel): 32.6 s
- τon (block at 1 μM ChTX) (mSlo1/β4(H101Y) channel): 8 s
- Kd (mSlo1/β4(N123R) channel [10]): 329 nM
- τoff (mSlo1/β4(N123R) channel [10]): 85.3 s
- τon (block at 1 μM ChTX) (mSlo1/β4(N123R) channel [10]): 21.1 s
- Kd (mSlo1/β4(N123L) channel): 41.9 nM
- τoff (mSlo1/β4(N123L) channel): 171 s
- τon (block at 1 μM ChTX) (mSlo1/β4(N123L) channel): 6.9 s
- Kd (mSlo1/β4(N123E) channel [11]): 80.8 nM
- τoff (mSlo1/β4(N123E) channel [11]): 138 s
- τon (block at 1 μM ChTX) (mSlo1/β4(N123E) channel [11]): 10.3 s
- τon (block at 1 μM ChTX) (mSlo1/β4 channel [12]): 60.9 s
- Kd (mSlo1/β4(N123D) channel [13]): 72.6 nM
- τoff (mSlo1/β4(N123D) channel [13]): 624 s
- τon (block at 1 μM ChTX) (mSlo1/β4(N123D) channel [13]): 42.2 s
- Kd (mSlo1/β4(N123K) channel [14]): 44.3 nM
- τoff (mSlo1/β4(N123K) channel [14]): 314 s
- τon (block at 1 μM ChTX) (mSlo1/β4(N123K) channel [14]): 13.3 s
- Kd (mSlo1/β4(N123I) channel): 119 nM
- τoff (mSlo1/β4(N123I) channel): 38.5 s
- τon (block at 1 μM ChTX) (mSlo1/β4(N123I) channel): 4.1 s
